Assay results published in article PMC7041718 (The Journal of Experimental Medicine, 2019).

Biological target: 16055 gp120 (HIV-1 clade C clinical isolate 16055)
Assay: ELISA

binding result: binds
B1: GM7_TH2 mAb (antibody, V domains shown)
VH: QVQLVQSGTEVKQPGASVKVSCKASGYTFTGYGMNWVRQAHGQRLEWMGWINTETGHPTYAQGFKERFTFSMDTSISTAYLQINSLKPEDTAIYYCARFSGLHSVAVFEYWGQGVLVTVSS
VL: SSGLTQEPALSVALGHTVRMTCQGDSLKTYYATWYQQKPGQVPVLVIYDNNYRPSGIPGRFSVSWSGDTNSLTITAAQVEDEADYYCNSWDSSGTHLLFGGGTRLTVL
